Data from article PMC10528150.

Target: cytochrome c oxidase (ferrocytochrome c:oxygen oxidoreductase), solubilized complex

Substance: cytochrome c with substitutions K8E/E69K/K72E/K86E/K87E (from UniProt P00004 1-105) (natural protein)
- Activity in the cytochrome c oxidase reaction, % of WT: < 1%
- Activity, s^−1, in the cytochrome c oxidase reaction (oxygen uptake by solubilized CcO with ascorbate and TMPD, 25 °C): < 1 s⁻¹

Substance: cytochrome c with substitutions E69K/K72E (from UniProt P00004 1-105) (natural protein)
- Activity in the cytochrome c oxidase reaction, % of WT: 25%
- Activity, s^−1, in the cytochrome c oxidase reaction (oxygen uptake by solubilized CcO with ascorbate and TMPD, 25 °C): 54 s⁻¹
